Laboratory results published in the supplement of paper PMC7125110.
± gives the standard error. Fewer inactive variants are shown than the library holds.

B1: glmS ribozyme (parent)
chain: AUAAAAGCGCCAGAACUACAGAAAUGUAGUUGACGAGGAGGAGGUUUAUCGAAUUUUCGGCGGAUGCCUCCAAA

Variants of: B1
Test: self-cleavage kobs at 10000 uM GlcN6P; higher = faster cleavage; RNA array
Conditions: with glucosamine-6-phosphate
Summary of the method: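 Ribozyme variants carrying barcodes were transcribed in situ on sequenced MiSeq chips by E. coli RNA polymerase and tracked at 37 °C with a hybridised Cy3 probe. They were exposed to 40 μM to 10 mM glucosamine-6-phosphate in HEPES/KCl/Mg(OAc)2 buffer. kobs came from exponential decay fits of normalised per-tile medians, and kcat and KM from weighted Michaelis–Menten fits.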

Variant | self-cleavage kobs at 10000 uM GlcN6P
C11U G29C C71U | 0.000101 ± 1.9e-05 s⁻¹
G37C A53G U55G | 3.2e-05 ± 1.4e-05 s⁻¹
G9C G41U G43U C67G | < 1e-05 s⁻¹
U45C U54G C70A | 5.88e-05 ± 1.3e-05 s⁻¹
C11A A12U A14C | 8.7e-05 ± 1.9e-05 s⁻¹
A14U G37A G43C G59C | < 1e-05 s⁻¹
G9A A15C C67A | < 1e-05 s⁻¹
C11U A12G A14G G26U | 0.00104 ± 0.00024 s⁻¹
G13A G35A G60U C70A | < 1e-05 s⁻¹
A15G U30G G40U | 0.000863 ± 0.00017 s⁻¹
A12G G13U G40A | 4.65e-05 ± 1.4e-05 s⁻¹
G9U A15U G37U | < 1e-05 s⁻¹
G38U U49C G63A | < 1e-05 s⁻¹
U31G A33U A53G | 2.81e-05 ± 1.3e-05 s⁻¹
A6G A12U C16U | 5.43e-05 ± 2.1e-05 s⁻¹
G40C G41U G62A | < 1e-05 s⁻¹
C16U A39C A53G | 0.00494 ± 0.0011 s⁻¹
C8U U46G G66C C70G | 9.08e-05 ± 2.6e-05 s⁻¹
C11U A36C G43U | < 1e-05 s⁻¹
G9A A36U U65C | < 1e-05 s⁻¹
C8G A14U A52C G59C C71U | < 1e-05 s⁻¹
A15C U30C G62U | < 1e-05 s⁻¹
C50U A53U G62A | < 1e-05 s⁻¹
G13A A42C G60C | < 1e-05 s⁻¹

Variant | self-cleavage kobs at 10000 uM GlcN6P
A24C G29C | 0.00129 ± 0.00026 s⁻¹
A14G U31C C58A C68U C70U | 3.74e-05 ± 1.6e-05 s⁻¹
A15G U55G C58A | 0.000435 ± 8.3e-05 s⁻¹
G13U A39U A53U C67G | 4.97e-05 ± 1.8e-05 s⁻¹
A6U G9A G43C A53C C70G | < 1e-05 s⁻¹
A14U A39C G66U | 0.000116 ± 2.2e-05 s⁻¹
A36G G44U A53C | < 1e-05 s⁻¹
G13U A14C C58G | 7.6e-05 ± 1.7e-05 s⁻¹
U57G A64G | 9.48e-05 ± 1.8e-05 s⁻¹
U45C U49G | 3.08e-05 ± 1.4e-05 s⁻¹
G32A A39U C68U | 0.000655 ± 0.00014 s⁻¹
A33C G43U U49C C68U | < 1e-05 s⁻¹
G35U G40C G59C G62A U69C | < 1e-05 s⁻¹
G35U A53U U56A | < 1e-05 s⁻¹
C8U C34G C58G G60U C67U | < 1e-05 s⁻¹
G40A A53G C70A | 0.000157 ± 3.7e-05 s⁻¹
C16A A36C U57A C61U C67U | < 1e-05 s⁻¹
A33G U47A C70U | < 1e-05 s⁻¹
U56A C58A C67G | 7.18e-05 ± 2.4e-05 s⁻¹
A14U U49C C70A | < 1e-05 s⁻¹
C11A C16A G66C C70G | 6.24e-05 ± 2.5e-05 s⁻¹
A15G U31C G38C G63A | < 1e-05 s⁻¹
A15C U30C A39G | 0.000286 ± 6.4e-05 s⁻¹
G9U U31G U45A C61A C68A | < 1e-05 s⁻¹

Variant | self-cleavage kobs at 10000 uM GlcN6P
G35U U45G C67G | < 1e-05 s⁻¹
C11U C34G G38A | < 1e-05 s⁻¹
A6C U45C U69G | < 1e-05 s⁻¹
G38U G41U A48U A52G U56C G60A C68G C71U | < 1e-05 s⁻¹
G37C U54G | 3.98e-05 ± 8.6e-06 s⁻¹
G38C A53C C67U | < 1e-05 s⁻¹
G9C C50U A64U | < 1e-05 s⁻¹
C16U U31G C70A | 8.19e-05 ± 1.7e-05 s⁻¹
A6C C8U G9C C67U | < 1e-05 s⁻¹
C11U C50A G66A | < 1e-05 s⁻¹
A39C G40U G59C C70U | < 1e-05 s⁻¹
A15C G43C G51A C58G | < 1e-05 s⁻¹
G7C A14U C67U C68G | < 1e-05 s⁻¹
C16U U55G C68G | 5.93e-05 ± 1.5e-05 s⁻¹
C10A G63U C71U | < 1e-05 s⁻¹
G9C G63A C68G | < 1e-05 s⁻¹
G7C A48G C50A | < 1e-05 s⁻¹
G32C U54A C68G | 6.46e-05 ± 2e-05 s⁻¹
G37C G51A U69A | < 1e-05 s⁻¹
C11A A15C U54G | 5.7e-05 ± 1.8e-05 s⁻¹
C8A A15U C70U | < 1e-05 s⁻¹
C16A U31C U55A | 0.000194 ± 3.1e-05 s⁻¹
G32U G37U G43A A52G C67U | < 1e-05 s⁻¹
U30C G35C G41U C71A | < 1e-05 s⁻¹

Variant | self-cleavage kobs at 10000 uM GlcN6P
C10G A12G C61U | < 1e-05 s⁻¹
U31G G38A A53C U65C | < 1e-05 s⁻¹
G37A U56C G66U | 2.45e-05 ± 1.1e-05 s⁻¹
A6C U31G G41C U54A U55C C68U | < 1e-05 s⁻¹
C8A G40C G59A G63A | < 1e-05 s⁻¹
G9U U31G C34U G59U | < 1e-05 s⁻¹
A6U A15G G43A C68G | < 1e-05 s⁻¹
G9U U30A U56G | < 1e-05 s⁻¹
C11U G40A A52C G62C | < 1e-05 s⁻¹
C8U G37C C50G A53U C67A | 0.000441 ± 0.00011 s⁻¹
G44U A48G C50U C71U | < 1e-05 s⁻¹
C16G G43U C68U | 0.0002 ± 4.7e-05 s⁻¹
C11G G38U G41A C68G | < 1e-05 s⁻¹
A5U A33C | 0.000263 ± 6.3e-05 s⁻¹
G32C G66A | 7.35e-05 ± 1.4e-05 s⁻¹
G35A A36U G43U | < 1e-05 s⁻¹
G13U G43U A64U | < 1e-05 s⁻¹
A36U C68G C71U | 5.72e-05 ± 2.3e-05 s⁻¹
A14U C34G C71U | < 1e-05 s⁻¹
U47G U55C C67A | 0.000309 ± 4.9e-05 s⁻¹
G7A C8U U56C | < 1e-05 s⁻¹
U30A U45C | 0.000307 ± 8.9e-05 s⁻¹
G32U U46A U56G | 3.85e-05 ± 1.2e-05 s⁻¹
A14U U30A G40C | 5.69e-05 ± 1.4e-05 s⁻¹

Variant | self-cleavage kobs at 10000 uM GlcN6P
A39G G44A U57A C61U C70U | < 1e-05 s⁻¹
G41U A53G C71A | 0.000206 ± 4.7e-05 s⁻¹
C16A U31A C70U | 0.00113 ± 0.00026 s⁻¹
U49A C50A | < 1e-05 s⁻¹
G37U G38A G51U | < 1e-05 s⁻¹
U31A U49A U65C C67G | < 1e-05 s⁻¹
U30G G41U G43A A48C C71U | < 1e-05 s⁻¹
C11A U47C U55A G59U | 0.00336 ± 0.00065 s⁻¹
A12C G66C | 0.000754 ± 0.00033 s⁻¹
G21A A33U | 0.00012 ± 2.2e-05 s⁻¹
A12C U56G C70G | 5.35e-05 ± 1.3e-05 s⁻¹
G26U G44U | 0.000189 ± 3.6e-05 s⁻¹
G7U C16A G62A | < 1e-05 s⁻¹
C11G A15G G40C U46A G62A A64U | < 1e-05 s⁻¹
G7C A42G G43A | < 1e-05 s⁻¹
A33C U45G | 4.71e-05 ± 1e-05 s⁻¹
G32C A36C C67U | < 1e-05 s⁻¹
C11U G32U C61G U69C | 0.00014 ± 3.4e-05 s⁻¹
G41C G59U G60C | < 1e-05 s⁻¹
C10A U45A A52U | < 1e-05 s⁻¹
A6C G44A C58U | < 1e-05 s⁻¹
G40A G44U A64C | < 1e-05 s⁻¹
A15U U55G G63U C67U | < 1e-05 s⁻¹
C11G G32U A39C | < 1e-05 s⁻¹

Variant | self-cleavage kobs at 10000 uM GlcN6P
C10U C34A G41U | < 1e-05 s⁻¹
C11G U30C A42C U55G C61A G62A C71G | < 1e-05 s⁻¹
A12G U65G C70U | 0.000133 ± 1.7e-05 s⁻¹
A14U G40C U56A A64G | 8.64e-05 ± 2.9e-05 s⁻¹
A14C A42G C61A | < 1e-05 s⁻¹
G7U G13C G32A | < 1e-05 s⁻¹
C50U U55C | 4.47e-05 ± 1.1e-05 s⁻¹
A6G U47A | 0.000437 ± 0.00013 s⁻¹
C11U G29U C70A | 8.25e-05 ± 2.8e-05 s⁻¹
G32A U45G U49G C71G | < 1e-05 s⁻¹
A12G A15U U31G | 0.000128 ± 2.3e-05 s⁻¹
G29C U45A C68U | 0.000376 ± 0.00011 s⁻¹
A6U U45G C67A | 4.59e-05 ± 1.8e-05 s⁻¹
G44C U56G | 5.6e-05 ± 1.2e-05 s⁻¹
G29C C50G C61G C71U | 8.93e-05 ± 2.1e-05 s⁻¹
A14C C50G G62U C67G | 6.05e-05 ± 1.8e-05 s⁻¹
G32A U55A C67G | 8.33e-05 ± 2.7e-05 s⁻¹
A36G A48C C68A | < 1e-05 s⁻¹
A6G A14U A36G C50A | < 1e-05 s⁻¹
A33U U57C C67G U69A | < 1e-05 s⁻¹
A36C U47G U65G | < 1e-05 s⁻¹
C10A U31C G38U A48C | < 1e-05 s⁻¹
A52C U54G C71G | < 1e-05 s⁻¹
A12G G13C G35A | < 1e-05 s⁻¹

Variant | self-cleavage kobs at 10000 uM GlcN6P
G40C A53U C61A | < 1e-05 s⁻¹
C10G A48G G51C | < 1e-05 s⁻¹
U47G G66C | 0.000614 ± 0.00011 s⁻¹
A12U A48C U49C C50A C68U | < 1e-05 s⁻¹
A15U U49A A52G | < 1e-05 s⁻¹
G29A U49G U56G | 3.31e-05 ± 1.3e-05 s⁻¹
G13U G37A C50U U69A | < 1e-05 s⁻¹
C11G G66C | < 1e-05 s⁻¹
A1U U2G A3G A5U G44A | 4.04e-05 ± 1.7e-05 s⁻¹
A52G U65G C71G | 2.3e-05 ± 1.1e-05 s⁻¹
G44A U56A A64G | 0.000101 ± 2.4e-05 s⁻¹
A15U G60U G62C | < 1e-05 s⁻¹
U31G C58U | 9.69e-05 ± 1.1e-05 s⁻¹
A6U C16U U45A | 0.000375 ± 6.6e-05 s⁻¹
A39G G44U C71U | 3.94e-05 ± 1.7e-05 s⁻¹
A14C A39U A53G | 0.00135 ± 0.0004 s⁻¹
A14G A42U A52G | 6.3e-05 ± 1.1e-05 s⁻¹
G9U A15U C34A C58G | < 1e-05 s⁻¹
G7U A14U G29C | < 1e-05 s⁻¹
C16A U45G A64G | 0.000258 ± 5.1e-05 s⁻¹
A12U A64U C67U | 0.00017 ± 3e-05 s⁻¹
A6C A14G A64G | 0.000191 ± 3.2e-05 s⁻¹
G37A G43U U55G C68G | 0.000281 ± 7.9e-05 s⁻¹
